The numbers were not newly measured in patent publication US9233143B2, “Medicinal agent for preventing exacerbation of malignant tumor, comprising combination of natriuretic peptide receptor GC-A and GC-B agonists” (National Cerebral and Cardiovascular Center, priority 2011, dated 2016), which cites them from elsewhere.

Bridge positions count the residues as written; N and C are the ends. Ends that are not written are not given here.

The data set concerns the target T1, natriuretic peptide receptor GC-B (Homo sapiens, UniProt P20594).
T1 sequence (P20594 23-1047): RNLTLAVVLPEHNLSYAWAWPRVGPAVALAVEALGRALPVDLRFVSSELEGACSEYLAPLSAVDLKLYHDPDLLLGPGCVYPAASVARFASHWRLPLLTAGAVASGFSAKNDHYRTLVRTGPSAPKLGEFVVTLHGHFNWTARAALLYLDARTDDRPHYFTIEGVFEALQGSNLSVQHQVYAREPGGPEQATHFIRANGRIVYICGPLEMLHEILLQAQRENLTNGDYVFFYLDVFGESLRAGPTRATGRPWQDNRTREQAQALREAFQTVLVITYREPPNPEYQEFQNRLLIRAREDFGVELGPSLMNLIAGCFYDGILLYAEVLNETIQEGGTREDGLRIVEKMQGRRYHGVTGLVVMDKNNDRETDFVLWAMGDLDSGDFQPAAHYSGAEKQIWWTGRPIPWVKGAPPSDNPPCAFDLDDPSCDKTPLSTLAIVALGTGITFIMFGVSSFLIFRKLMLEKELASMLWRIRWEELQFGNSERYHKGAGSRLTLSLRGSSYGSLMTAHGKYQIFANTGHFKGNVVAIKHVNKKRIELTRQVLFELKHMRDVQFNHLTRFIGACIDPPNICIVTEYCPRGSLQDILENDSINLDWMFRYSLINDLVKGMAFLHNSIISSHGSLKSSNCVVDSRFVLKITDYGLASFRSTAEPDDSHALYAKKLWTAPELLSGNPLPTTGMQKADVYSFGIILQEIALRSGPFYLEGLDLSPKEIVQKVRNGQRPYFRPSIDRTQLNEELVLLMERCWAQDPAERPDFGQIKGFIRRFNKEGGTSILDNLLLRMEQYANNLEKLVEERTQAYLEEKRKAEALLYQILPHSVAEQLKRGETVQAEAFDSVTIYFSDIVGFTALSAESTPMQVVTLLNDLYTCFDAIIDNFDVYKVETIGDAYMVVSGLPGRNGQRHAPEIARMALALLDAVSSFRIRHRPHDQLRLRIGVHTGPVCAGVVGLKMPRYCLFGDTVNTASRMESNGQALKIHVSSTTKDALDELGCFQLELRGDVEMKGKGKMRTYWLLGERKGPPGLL
To be noted: literature reports; cited from earlier work.

Regarding “hCNP6-22: a peptide consisting of amino acids from position 6 to position 22 of SEQ ID NO: 7 (only the ring structure) (CFGLKLDRIGSMSGLGC; disulfide 1-17 (inferred); listed as Homo sapiens)”, the GC-B agonist activity result is “comparable to that of hCNP-22”.
